Reference: IntAct's records for PubMed 9418872

B1: Tyrosine-protein phosphatase non-receptor type 1 (Homo sapiens), P18031 (parent)
chain: MEMEKEFEQIDKSGSWAAIYQDIRHEASDFPCRVAKLPKNKNRNRYRDVSPFDHSRIKLHQEDNDYINASLIKMEEAQRSYILTQGPLPNTCGHFWEMVWEQKSRGVVMLNRVMEKGSLKCAQYWPQKEEKEMIFEDTNLKLTLISEDIKSYYTVRQLELENLTTQETREILHFHYTTWPDFGVPESPASFLNFLFKVRESGSLSPEHGPVVVHCSAGIGRSGTFCLADTCLLLMDKRKDPSSVDIKKVLLEMRKFRMGLIQTADQLRFSYLAVIEGAKFIMGDSSVQDQWKELSHEDLEPPPEHIPPPPRPPKRILEPHNGKCREFFPNHQWVKEETQEDKDCPIKEEKGSPLNAAPYGIESMSQDTEVRSRVVGGSLRGAQAASPAKGEPSLPEKDEDHALSYWKPFLVNMCVATVLTAGAYLCYRFLFNSNT
partner: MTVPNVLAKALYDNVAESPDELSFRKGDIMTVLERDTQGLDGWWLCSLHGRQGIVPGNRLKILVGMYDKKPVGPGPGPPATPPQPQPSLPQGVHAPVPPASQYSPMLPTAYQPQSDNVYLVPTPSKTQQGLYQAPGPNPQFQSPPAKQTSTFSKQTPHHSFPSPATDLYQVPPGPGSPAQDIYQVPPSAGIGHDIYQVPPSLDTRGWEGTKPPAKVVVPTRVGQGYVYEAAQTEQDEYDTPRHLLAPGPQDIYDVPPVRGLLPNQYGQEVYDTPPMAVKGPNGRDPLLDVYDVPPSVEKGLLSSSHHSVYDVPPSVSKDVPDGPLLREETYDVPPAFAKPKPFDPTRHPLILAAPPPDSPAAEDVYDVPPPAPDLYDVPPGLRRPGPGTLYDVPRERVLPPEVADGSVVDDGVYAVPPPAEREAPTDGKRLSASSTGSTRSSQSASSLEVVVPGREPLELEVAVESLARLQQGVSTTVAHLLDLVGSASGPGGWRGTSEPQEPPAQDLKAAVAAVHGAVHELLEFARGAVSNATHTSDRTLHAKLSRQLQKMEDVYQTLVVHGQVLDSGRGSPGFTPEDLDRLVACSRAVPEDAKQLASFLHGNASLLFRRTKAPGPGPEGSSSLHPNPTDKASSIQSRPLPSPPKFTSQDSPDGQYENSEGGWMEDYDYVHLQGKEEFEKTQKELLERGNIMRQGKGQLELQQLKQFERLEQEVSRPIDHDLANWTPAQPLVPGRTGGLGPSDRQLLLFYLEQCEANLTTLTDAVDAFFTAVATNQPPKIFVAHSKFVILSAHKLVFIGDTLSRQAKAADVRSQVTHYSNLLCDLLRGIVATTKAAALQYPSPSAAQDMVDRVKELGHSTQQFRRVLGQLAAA
B2: Tyrosine-protein phosphatase non-receptor type 1 (Homo sapiens), P18031 (parent)
chain: B1 chain
partner: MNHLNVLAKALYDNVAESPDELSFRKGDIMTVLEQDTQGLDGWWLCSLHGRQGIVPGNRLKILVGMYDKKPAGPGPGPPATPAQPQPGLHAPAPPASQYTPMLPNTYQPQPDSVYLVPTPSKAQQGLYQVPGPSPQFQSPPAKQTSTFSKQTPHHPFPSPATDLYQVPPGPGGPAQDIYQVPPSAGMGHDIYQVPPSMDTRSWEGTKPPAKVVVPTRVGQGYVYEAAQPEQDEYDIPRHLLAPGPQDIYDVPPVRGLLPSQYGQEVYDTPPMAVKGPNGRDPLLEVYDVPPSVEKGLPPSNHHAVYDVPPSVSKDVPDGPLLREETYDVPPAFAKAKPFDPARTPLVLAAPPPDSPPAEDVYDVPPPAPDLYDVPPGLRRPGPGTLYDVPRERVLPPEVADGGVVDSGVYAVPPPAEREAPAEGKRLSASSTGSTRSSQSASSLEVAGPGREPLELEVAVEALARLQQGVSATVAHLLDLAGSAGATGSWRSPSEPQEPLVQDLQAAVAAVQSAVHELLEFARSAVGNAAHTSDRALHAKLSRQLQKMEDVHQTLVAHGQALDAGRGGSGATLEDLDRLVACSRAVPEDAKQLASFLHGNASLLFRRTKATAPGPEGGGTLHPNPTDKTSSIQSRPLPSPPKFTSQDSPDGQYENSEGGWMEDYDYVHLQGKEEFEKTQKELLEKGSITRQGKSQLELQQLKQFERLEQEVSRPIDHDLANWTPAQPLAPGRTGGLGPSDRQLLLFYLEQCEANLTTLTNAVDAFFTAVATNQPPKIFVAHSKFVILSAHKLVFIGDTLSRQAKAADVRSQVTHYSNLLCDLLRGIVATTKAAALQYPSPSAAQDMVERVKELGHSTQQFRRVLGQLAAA
B3: Tyrosine-protein phosphatase non-receptor type 1 (Homo sapiens), P18031 (parent)
chain: B1 chain

Variants of: B1
Conditions: with bcar1_mouse Bcar1, Q61140

effect of a mutation on the interaction | Variant
disrupting interaction | P310A
disrupting interaction | P309A

Variants of: B1
Conditions: with bcar1_mouse Bcar1, Q61140
Remark: another data set of the same source

effect of a mutation on the interaction | Variant
disrupting interaction | C215S

Variants of: B2
Conditions: with bcar1_human BCAR1, P56945

effect of a mutation on the interaction | Variant
disrupting interaction | P309A
disrupting interaction | P310A

Variants of: B3
Conditions: with paxi_mouse Pxn

effect of a mutation on the interaction | Variant
disrupting interaction | C215S

Variants of: B3
Conditions: with fak1_mouse Ptk2, P34152
fak1_mouse Ptk2, P34152, sequence (P34152 whole entry): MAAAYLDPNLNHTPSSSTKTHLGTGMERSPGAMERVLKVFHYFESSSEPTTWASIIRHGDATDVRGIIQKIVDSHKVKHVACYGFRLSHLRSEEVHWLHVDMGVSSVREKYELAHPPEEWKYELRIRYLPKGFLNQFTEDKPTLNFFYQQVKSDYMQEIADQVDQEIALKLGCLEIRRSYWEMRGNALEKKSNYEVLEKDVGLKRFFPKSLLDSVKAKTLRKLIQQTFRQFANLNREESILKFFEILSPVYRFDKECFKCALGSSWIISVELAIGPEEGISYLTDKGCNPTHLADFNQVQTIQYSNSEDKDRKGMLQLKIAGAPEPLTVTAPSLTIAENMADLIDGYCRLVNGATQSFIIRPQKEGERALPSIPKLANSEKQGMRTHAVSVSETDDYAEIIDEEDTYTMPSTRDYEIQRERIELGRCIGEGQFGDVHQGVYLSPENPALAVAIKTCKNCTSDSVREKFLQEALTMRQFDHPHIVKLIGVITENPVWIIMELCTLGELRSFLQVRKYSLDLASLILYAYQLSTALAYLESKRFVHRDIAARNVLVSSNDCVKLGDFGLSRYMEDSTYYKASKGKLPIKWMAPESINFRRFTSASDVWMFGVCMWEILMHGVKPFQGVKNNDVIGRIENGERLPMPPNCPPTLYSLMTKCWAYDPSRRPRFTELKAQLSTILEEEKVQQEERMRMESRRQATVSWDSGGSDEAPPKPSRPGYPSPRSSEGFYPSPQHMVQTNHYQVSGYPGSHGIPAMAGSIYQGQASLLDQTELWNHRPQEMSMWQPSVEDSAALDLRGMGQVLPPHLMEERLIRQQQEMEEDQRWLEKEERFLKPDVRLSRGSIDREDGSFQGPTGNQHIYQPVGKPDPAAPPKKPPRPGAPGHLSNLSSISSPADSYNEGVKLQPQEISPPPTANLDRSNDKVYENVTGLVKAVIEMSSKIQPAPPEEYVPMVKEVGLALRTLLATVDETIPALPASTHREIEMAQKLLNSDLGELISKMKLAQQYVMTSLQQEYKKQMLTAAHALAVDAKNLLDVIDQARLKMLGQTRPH

effect of a mutation on the interaction | Variant
disrupting interaction | C215S

Variants of: B3
Conditions: with paxi_mouse Pxn
Remark: another data set of the same source

effect of a mutation on the interaction | Variant
disrupting interaction | P310A
disrupting interaction | P309A

Variants of: B3
Conditions: with fak1_mouse Ptk2, P34152
Remark: another data set of the same source

effect of a mutation on the interaction | Variant
disrupting interaction | P310A
disrupting interaction | P309A
